Results from patent US20250154581A1 (BGI SHENZHEN, published 2025).

Assays:
[1] = target: T1, Spycatcher003-MspA(MspA)7 (Mycolicibacterium smegmatis (strain …, UniProt A0QR29 28-211)); assay: mixed 1:1.2 (octamer:Spytag003-DDA), 25 C 30 min, covalent Spytag003/Spycatcher003 coupling; Superose 6 Increase size exclusion chromatography
T1 construct: Octamer of one Spycatcher003-MspA and seven Strep-MspA subunits, co-expressed in E. coli; also called Spycatcher003-labeled MspA octamer; MspA octamer formed by Spycatcher003-MspA and MspA in a ratio of 1:7
Protocol: The Spycatcher003-labeled MspA octamer obtained in the above step 4 was mixed with the Spytag003-DDA obtained in the above step 3 at a ratio of 1:1.2, and reacted at 25° C. for 30 minutes, the Superose 6 increase is used for size exclusion chromatography (Purification Buffer: 150 mM NaCl, 20 mM Tris, 0.05% Tween20) to remove excess Spytag003-DDA protein, and the DDA-Spytag/Spycatcher-MspA complex was collected.

Strep-MspA = target: T2, Strep-MspA (Mycolicibacterium smegmatis (strain …, UniProt A0QR29 28-211)); assay: co-expression, Strep column co-purification, nickel column imidazole gradient and ion exchange separation
T2 construct: Subunit co-expressed with 6*His-Spycatcher003-MspA; Called simply MspA where the 1:7 complex is described
Protocol: In the present application, an MspA octamer which only contains one molecule of Spycatcher003 was obtained through the following method. First, the bacterial cells co-expressing 6*His-Spycatcher003-MspA and Strep-MspA obtained in the above step 2 (2) were disrupted by high pressure (Lysis Buffer: 150 mM NaCl, 20 mM Tris, 1% DDM) and purified by Strep column (Wash Buffer: 150 mM NaCl, 20 mM Tris, 0.05% Tween 20; Elution buffer: 150 mM NaCl, 20 mM Tris, 10 mM desthiobiotin) to obtain complexes with different ratios of the two proteins. […] From this, the Spycatcher003-labeled MspA octamer was obtained.

Binder | binding result [1] | binding result (Strep-MspA)
Spytag003-DDA (enzyme, Expressed from pET.28a(+)-6*His-Spytag003-DDA; also called 6*His-Spytag003-DDA; motor protein Spytag003-DDA) RGVPHIVMVDAYKRYKGGSGGSGGSGGSGGSGGSMTFDDLTEGQKNAFNIVMKAIKEKKHHVTINGPAGTGKTTLTKFIIEALISTGGTGIILAAPTHAAKKILSKLSGKEASTIHSILKINPVTYEENVLFEQKEVPDLAKCRVLICDEVSMYDRKLFKILLSTIPPWCTIIGIGDNKQIRPVEPGENTAYISPFFTHKDFYQCELTEVKRSNAPIIDVATDVRNGKWNYDKVVDGHGVRGFTGDTALRDFMVNYFSIVKSLDDLFENRVMAFTNKSVDKLNSIIRKKIFETDKDFIVGEIIVMQEPLFKTYKIDGKPVSEIIFNNGQLVRIIEAEYTSTFVKARGVPGEYLIRHWDLTVETYGDDEYYREKIKIISSDEELYKFNLFLAKTAETYKNWNKGGKAPWSDFWDAKSQFSKVKALPASTFHKAQGMSVDRAFIYTPCIHYADVELAQQLLYVGVTRGRYDVFYV | binds | –
Spycatcher003-MspA (other, Subunit expressed as 6*His-Spycatcher003-MspA; also called 6*His-Spycatcher003-MspA) MVTTLSGLSGEQGPSGDMTTEEDSATHIKFSKRDEDGRELAGATMELRDSSGKTISTWISDGHVKDFYLYPGKYTFVETAAPDGYEVATPIEFTVNEDGQVTVDGEATEGDAHTGGSGGSGGSGLDNELSLVDGQDRTLTVQQWDTFLNGVFPLDRNRLTREWFHSGRAKYIVAGPGADEFEGTLELGYQIGFPWSLGVGINFSYTTPNILIDDGDITAPPFGLNSVITPNLFPGVSISADLGNGPGIQEVATFSVDVSGAEGGVAVSNAHGTVTGAAGGVLLRPFARLIASTGDSVTTYGEPWNMN | – | binds
